According to patent publication US20220177589A1 (OXFORD UNIVERSITY INNOVATION, published 2022):

Key:
[1] = biological target: full length human BTLA expressed in a Jurkat T cell line (human, UniProt Q7Z6A9 31-289); test: cell-based or functional assay
[2] = biological target: chimeric BTLA of humanised-BTLA mice (human extracellular region, murine transmembrane and signaling … (human; mouse, UniProt Q7TSA3 184-306, limits assumed); test: cell-based or functional assay
Sequence of chimeric BTLA of humanised-BTLA mice (human extracellular region, murine transmembrane and signaling … (Q7TSA3 other isoform, or with tags, fused parts or gaps mutant limits assumed): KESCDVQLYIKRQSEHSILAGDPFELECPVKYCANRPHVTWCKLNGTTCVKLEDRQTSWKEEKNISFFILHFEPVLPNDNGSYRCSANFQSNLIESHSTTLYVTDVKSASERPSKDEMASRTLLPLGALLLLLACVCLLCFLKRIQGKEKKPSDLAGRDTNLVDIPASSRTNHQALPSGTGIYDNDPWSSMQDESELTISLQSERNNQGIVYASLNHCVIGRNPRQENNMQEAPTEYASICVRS

Binder | T cell reporter (NFkB signaling), % inhibition [1] [%] | AntiCD3/CD28 (CD4 T cell proliferation) repeat 1, % inhibition [2] [%] | AntiCD3/CD28 (CD4 T cell proliferation) repeat 2, % inhibition [2] [%] | AntiCD3/CD28 (CD69+ CD4 T cells) repeat 1, % inhibition [2] [%] | AntiCD3/CD28 (CD69+ CD4 T cells) repeat 2, % inhibition [2] [%] | MLR (CD4 T cell proliferation) repeat 1, % inhibition [2] [%] | MLR (CD4 T cell proliferation) repeat 2, % inhibition [2] [%]
8C4 (antibody, IgG1, V domains shown) VH: DVQLQESGPGMVKPSQSLSLTCTVTGYSITSGYDWHWIRHFPGNKLEWMGYISYSGSTNYNPSLKSRISITHDTSKNHFFLKLNSVTTEDTATYYCARGTPVVAEDYFDYWGQGTTLTVSS VL: QAVVTQESALSTSPGETVTLTCRSSTGAVTTSNYANWVQEKPDHLFTGLIGATNNRAPGVPARFSGSLIGDKAALTITGAQTEDEAIYFCALWYSNHLVFGGGTKLTVLG | 21 | 12 | 4 | 29 | 29 | 42 | -2
7A1 (antibody, IgG1, V domains shown) VH: QVQLQQSGPELVKPGASVKISCKASGYAFSSSWMNWVKQRPGKGLEWIGRIYPGDGDTNYNGKFKGKATLTADKSSSTAYMQLSSLTSEDSAVYFCARRGYGYLAYWGQGTLVTVSA VL: DIVMTQSHKFMSTSVGDRVSITCKASQDVSTAVAWYQQKPGQSPKLLIYSASYRYTGVPDRFTGSGSGTDFTFTISSVQAEDLAVYYCQQHYSTPWTFGGGTKLEIK | 20 | 14 | 17 | 28 | 38 | 23 | 29
15C6 (antibody, IgG1, V domains shown) VH: QVQLQQSGPELVKPGASVKISCKASGYAFSSSWMNWVKQRPGKGLEWIGRIYPGDGDTNYNGKFKGKATLTADKSSSTAYMQLSSLTSEDSAVYFCARRGYGYLAYWGQGTLVTVSA VL: DIVMTQSHKFMSTSVGDRVSITCKASQDVSTAVAWYQQKPGQSPKLLIYSASYRYTGVPDRFTGSGSGTDFTFTISSVQAEDLAVYYCQQHYSTPYTFGGGTKLEIK | 9 | 2 | -2 | 12 | 19 | 19 | 8
10B1 (antibody, IgG1, V domains shown) VH: QVQLQQSGAELARPGASVKLSCKASGYTFTSYGISWVKQRTGQGLEWIGEIYPRSGNTYYNEKFKGKATLTADKSSSTAYMELRSLTSEDSAVYFCARNYGSSYPFAYWGQGTLVTVSA VL: not shown | 27 | 8 | 14 | 24 | 36 | 16 | 25
4H4 (antibody, IgG1, V domains shown) VH: QVQLQQSGAELARPGASVKLSCKASGYTFTSYGISWVKQRTGQGLEWIGEIYPRSGNTYYNEKFKGKATLTADKSSSTAYMELRSLTSEDSAVYFCARRRGAGDGFDYWGQGTTLTVSS VL: DIQMTQTTSSLSASLGDRVTISCSASQGISNYLNWYQQKPDGTVKLLIYYTSSLHSGVPSRFSGSGSGTDYSLTISNLEPEDIATYYCQQYSKLPFTFGSGTKLEIK | 25 | 14 | 22 | 43 | 52 | 10 | 17
16E1 (antibody, IgG1, V domains shown) VH: QVQLQQSGAELARPGASVKLSCKASGYTFTSYGISWVKQRTGQGLEWIGEIYPRSGNTYYNEKFKGKATLTADKSSSTAYMELRSLTSEDSAVYFCARGYGSSYGFAYWGQGTLVTVSA VL: not shown | 22 | 4 | 8 | 9 | 23 | 33 | 8
27G9 (antibody, IgG1, V domains shown) VH: EVQLQQSVAELVRPGASVKLSCTASGFNIKNTYMHWVKQRPEQGLEWIGRIDPANGNTKYAPKFQGKATITADTSSNTAYLQLSSLTSEDTAIYYCALTYYGSSQYYFDYWGQGTTLTVSS VL: not shown | 24 | 10 | 13 | 24 | 22 | 9 | 8
1H6 (antibody, IgG1, V domains shown) VH: EVQLQQSVAELVRPGASVKLSCTASGFNIKNTYMHWVKQRPEQGLEWIGRIDPANGNTKYDPKFQGKATITADTSSNTAYVQLSSLTSEDTAIYYCALTYYGSSQHYFDYWGQGTTLTVSS VL: not shown | 26 | 26 | 19 | 47 | 53 | 31 | 16
26F3 (antibody, IgG1, V domains shown) VH: EVQLQQSVAELVRPGASVKLSCTASGFNIKNTYMYWVKQRPEQGLEWIGRIDPANGNTKYAPKFQGKATITADTSSNTAYLQLSSLTSEDTAIYYCALLYYGSSYDYFDYWGQGTTLTVSS VL: not shown | 20 | 4 | 0 | 19 | 17 | 9 | -5
3E8 (antibody, IgG1, V domains shown) VH: QVQLQQSGAELARPGASVRLSCKASGYTFTSYAIRWVKQRTGQGLEWIGEIYPRSGNTYYNENFKGKATLTADKSSSTAYMELRSLTSEDSAVYFCARSGGASYTMDYWGQGTSVTVSS VL: not shown | 30 | 27 | 35 | 52 | 64 | 43 | 35
26B1 (antibody, IgG1, V domains shown) VH: EVQLQQSGPVLVKPGASVKMSCKASGYTFTDYYLNWVKQSHGKSLEWIGLIDPYNGGSSCNQKFKGKATLTVDKSSSTAYMDLNSLTSEDSAVYYCARGNAMDYWGQGTSVTVSS VL: DIVMTQSHKFMSTSVGDRVSITCKASQDVSTAVAWYQEKPGQSPKLLIYWASTRHTGVPDRFTGSGSGTDYILNISSVQAEDLALYYCQQHYIIPYMFGGGTKLEIK | 29 | 11 | 19 | 35 | 30 | 12 | 10
15B6 (antibody, IgG1, V domains shown) VH: QVQLQQPGAELVKPGASVKLSCKASGYTFTSYWMHWVKQRPGQGLEWIGMIHPNSGSTNYNEKFKSKATLTVDKSSSTAYMQLSSLTSEDSAVYYCARKRGGLGDYWGQGTSVTVSS VL: DIVLTQSPASLAVSLGQRATISCRASKSVSTSGYSYMHWYQQKPGQPPKLLIYLASNLESGVPARFSGSGSGTDFTLNIHPVEEEDAATYYCQHSRELPYTFGGGTKLEIK | 21 | 9 | 16 | 13 | 20 | 7 | 13
12F11 (antibody, IgG1, V domains shown) VH: EVQLQQSGPELVKPGASVKISCKASGYTFTDYYMNWVKQSHGKSLEWIGDINPNNGGTSYNQKFKGKATLTVDKSSSTAYMELRSLTSEDSAVYYCARWRQLRSDYWGQGTTLTVSS VL: DIQMTQSPASQSASLGESVTITCLASQTIGTWLAWYQQKPGKSPQLLIYAATSLADGVPSRFSGSGSGTKFSFKISSLQAEDFVSYYCQQLYSTPLTFGAGTKLELK | 30 | 5 | 9 | 30 | 40 | 28 | 23
3A9 (antibody, IgG1, V domains shown) VH: QVQLKQSGAELVRPGASVKLSCKASGYTFTDYYINWVKQRPGQGLEWIARIYPGSGNTYYNEKFKGKATLTAEKSSSTAYMQLSSLTSEDSAVYFCARGYGNSDYWGQGTTLTVSS VL: DILLTQSPAILSVSPGERVSFSCRASQSIGTRIHWYQQRTNGSPRLLIKYASESISGIPSRFSGSGSGTDFTLSINSVESEDIADYYCQQSNSWPYTFGGGTKLEIK | 27 | 9 | 9 | 22 | 34 | 7 | 24
